Assay results: PMC3651084

biological target: recombinant human HER3-Fc chimera (UniProt P21860); assay: flow cytometry on staphylococcal-displayed mutants; settings: parent: est. 83; read off a plot
UniProt P21860, sequence (P21860 20-643, change not shown): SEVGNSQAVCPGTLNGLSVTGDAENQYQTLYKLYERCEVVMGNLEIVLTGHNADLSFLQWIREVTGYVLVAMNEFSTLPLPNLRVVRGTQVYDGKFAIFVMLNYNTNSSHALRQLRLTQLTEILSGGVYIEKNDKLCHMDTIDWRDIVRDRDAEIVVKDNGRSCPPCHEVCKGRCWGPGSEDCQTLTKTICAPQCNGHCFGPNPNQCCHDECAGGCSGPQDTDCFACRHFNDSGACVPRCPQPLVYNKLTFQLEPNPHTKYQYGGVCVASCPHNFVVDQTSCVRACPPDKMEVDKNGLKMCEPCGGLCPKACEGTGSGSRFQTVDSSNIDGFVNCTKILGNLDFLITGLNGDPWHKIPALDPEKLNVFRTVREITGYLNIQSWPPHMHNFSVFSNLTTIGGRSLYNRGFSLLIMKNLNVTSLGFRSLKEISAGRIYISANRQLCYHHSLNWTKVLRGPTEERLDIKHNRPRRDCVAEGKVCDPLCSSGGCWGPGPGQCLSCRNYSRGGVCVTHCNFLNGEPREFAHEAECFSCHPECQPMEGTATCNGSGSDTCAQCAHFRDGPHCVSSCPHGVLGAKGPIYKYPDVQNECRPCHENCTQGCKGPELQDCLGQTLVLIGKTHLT

| response | Substance |
| --- | --- |
| 87 | HER3-binding Affibody molecule Z05416, displayed on S. carnosus A28L |
| 72 | HER3-binding Affibody molecule Z05416, displayed on S. carnosus F14A |
| 43 | HER3-binding Affibody molecule Z05416, displayed on S. carnosus K9A |
| 100 | HER3-binding Affibody molecule Z05416, displayed on S. carnosus K27A |
| 71 | HER3-binding Affibody molecule Z05416, displayed on S. carnosus Q18A |
| 92 | HER3-binding Affibody molecule Z05416, displayed on S. carnosus Q35A |
| 91 | HER3-binding Affibody molecule Z05416, displayed on S. carnosus R25A |
| 93 | HER3-binding Affibody molecule Z05416, displayed on S. carnosus S32A |
| 86 | HER3-binding Affibody molecule Z05416, displayed on S. carnosus T11A |
| 78 | HER3-binding Affibody molecule Z05416, displayed on S. carnosus V24A |
| 10 | HER3-binding Affibody molecule Z05416, displayed on S. carnosus W17A |
| 10 | HER3-binding Affibody molecule Z05416, displayed on S. carnosus Y10A |
| 66 | HER3-binding Affibody molecule Z05416, displayed on S. carnosus Y13A |
